These results are taken from a protein production outcome set (Wang et al. 2014).
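Note: failed if final PepcDB status was selected cloned or expressed and not failed if soluble or beyond.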

The series can be described thus: label from the status in PepcDB records.
“MVKEPGGKHVLCVGAAVLDTLFRVADMPKGEGKVLPYEVLQIAEGMASSAAYAVHRMGGRASLWGAVGDDETGTRILRDLSESGIDTSGMTVAPGARSALSTIIIDNRGERLIVPFYDHRLHEKKRACTPEDIALFDAVLVDVRWPELALDVLTVARALGKPAILDGDVAPVETLEGLAPAATHIVFSEPAATRLTGLETVKDMLPVLHARYPQTFIAVTAGPAGCWWTEADDPTVHFQTTMQVEAVDTLAAGDIFHGTFALAMAEGMQSRAAVRLSSVAAALKCTVFGGRIGAPTREETEEAMRQWLERESEPALRAS”: the protein production entry is listed as “not failed”.

As for “MSSCCGPASPASSGPRTRRPRTATAQGDRHLFFAVYTIVPTDAYFGDAAVCFPPARPHMPIRRSLTIALFLLFPALGSGCQSTAPSTSSPSATEDAPAPLIVISIDGLRWDYLDRHEAPALSRIAEDGAHVDHLTPVFPTKTFPNHYSAVTGLYPSRHGIIANTMYDPAMDASFSLSDREAVMNPDWWGGEPIWVTAEQQGRTAATYFWPGSEAPVRGTRPTEWFEYDGSVPGTTRVDQALQWLDRPADTRPDLITLYFSRVDTKGHRHGPRSDSVATALREVDGFIQRLLDGLAARGLADAVNVMVTGDHGMSPTSRDRTIVLDDYIDPDDVRLTARNPVAMMEPRPGIPADSVVTALDQAPHLSAYRRGTLPDTLHFEGHRRIPSVIAVADDRWSIRTQAWMDENPDWTGGGTHGYDPRSENMHTLLAARGPGFRRNTTVDQLSLLHLYELMSALLDVEPAPNDGRLEAARPLLLPASARTAE”, the protein production entry is reported as “failed”.

For “MSMLKRTLVLLGDTPSSLAARAYAFRLVQQTGTDLTGLAGVDLGEIEAPMLGGIGMSAYQTQLQTELKRQADATRERLQAAFSDECRSRSIACAALSFEGDAADGFRLATETRDLAIAGHDTGFGGSQEPLSAMIAKLVVRTPRPLIVCPDELPAGDAVLIAYDGSLPAMRALQVFALLGLGDGKQICVLAIDRDEAAAVRKANAAAEFLKIHGHAAQAVPSSSGDDPADLIRSAVAERNIGTVVMGAYGNRGFREALFGSTTDALVDTPPCALFLYH”, the protein production entry is “failed”.

Take “MSQWTTVCKLDDILPGTGVCALVEQQQIAVFRPRNDEQVYAISNIDPFAQASVLSRGIVAEHQDDLWVASPLKKQHFRLYDGFCLEDGAYSVAAYDTQVTNGNVQISIADSDVAVDNSQPLPLEHHHHHH”: the protein production result is “not failed”.

With “MARTIENMAKPASDMPPYDKAAALRGLAGARRVALLMAPRLGDTLLMMNMARNLAAHGREVSIFGDYIHGLRDWFPGLDIRPSLSEEQAGQVLPGYDCAAQMHVGWPYALHAHQPNYFYYDAHVAITGRGFVKLFQIRDFCREQLGLAQAGADNGLRPPPQVQPHRSHPRRVALHPTSTGAQRCWAPRHFKELGLRLLHEGYEPNYIVAPHERAEWSWVLDHGLHLPQFPSLSEVAGFIHASGWFIGNESGIGHLASNVGVPTLSLTGRPTRTRAWRPAWSTSRIVYPALIPGGRWRDRLWREWLSPRRVMSAFHKLQADDRRQPVGVPWGKI”, the protein production result is recorded as “failed”.

For the sequence “MTVIERFKSNLKGKQNLINFGFILIGLFGCYLLIAWASYSPLDNAWSTASSVTHDTVLNKTGKLGAWLIDLLYAFLGNVAFVVPFVLFSFAIYALIFRIAEQWKWRNLLLQIGSFILLLIGLSGIASVLLPNSAYYLAGGFVGGMLQSLLNGIIGQVGLLLLSTVLMSIGFYFCSGQLLFSLGIQFYQWLFIKKPQSNTILEAANPHLNAQNNETTKSIVANPSENAHVDQLVTHENATEQLTDVSAFTRPTIHGLKSSSTLNTDKTKYNQVNAQPLTDPMMFKIEKKVILPKINMQHPENELTNLSMEQTNSIDNLEIRLPKVHLNTAVTNPEIKTVEHHAQNRPLEMPTQIQPVFDQPITPTISLNVEDQPLDIESNEAQLAEEFAAAEQMRLANMEQRAKAEGLEETFNQIITSPTLTVSINESSEQPTEKDLNPTHHDNGANYPKGYGKTLLHPLLQRNNVVEKPTTPLPTLELLAKNPVQTQQITEQEIFDTSHRLENALANYNVKATVEDVLVGPVVTRYEIKPAAGIKANKVTALANDLARELMFKAIRITEVVPGKPYMGIETPNTHRQTVWLRDVLDSEAFRHTQATLPMALGKDISGQPIVVDMAKMPHLLVAGQTGGGKSVGINTMILSLLFKLTPEQVRFIMIDPKVVELSVYNDIPHLLTPVVTDMKKAANALRWAVGEMERRYLLISHLQVRNIEGYNDKIDQASAMNFPIPDPTWRPADSIGQLPPPLTKLSYIVLIVDEFADLIMSAGKEVEEYIMRIAQKARAVGIHLILATQRPSTDVITGVIKANIPSRIAFTVASQIDSRTILDAGGAEALLGRGDMLYSASGSPEIMRIHGAFMSDEEVQRIADNWRARGKPQYLDSVVASHEDENDSRTNTITELDPLFDEIVAYVIESGVTSISGIQRRFSLGFNRAGRIIDQMEAQAIISEPGKGGKREVLAR”, the protein production result was “failed”.

With “MSNDVDLIKRLGPSAMDQIMLYLAFSAMRTSGHRHGAFLDAAATAAKCAIYMTYLEQGQNLRMTGHLHHLEPKRVKAIVEEVRQALTEGKLLKMLGSQEPRYLIQFPYVWMEKYPWRPGRSRIPGTSLTSEEKRQIEQKLPSNLPDAHLITSFEFLELIEFLHKRSQEDLPKEHQMPLSEALAEHIKRRLLYSGTVTRIDSPWGMPFYALTRPFYAPADDQERTYIMVEDTARFFRMMRDWAEKRPNTMRVLEELDILPEKMQQAKDELDEIIRAWADKYHQDDGVPVVLQMVFGKKED”, the protein production result is “not failed”.

For the sequence “TPAVVERADADSQYEILVGGQRAGLTAYRDLGAQRVFFHTEIDEAFAGQGLASQLVQQALVDVRASGMRIVPVCPYVAKFLKRHDEFADITDPVTPEVLRWLEAQL”, the protein production entry is recorded as “failed”.

In the case of “MSQAIPSSRVGVKINEWYKMIRQFSVPDAEILKAEVEQDIQQMEEDQDLLIYYSLMCFRHQLMLDYLEPGKTYGNRPTVTELLETIETPQKKLTGLLKYYSLFFRGMYEFDQKEYVEAIGYYREAEKELPFVSDDIEKAEFHFKVAEAYYHMKQTHVSMYHILQALDIYQNHPLYSIRTIQSLFVIAGNYDDFKHYDKALPHLEAALELAMDIQNDRFIAISLLNIANSYDRSGDDQMAVEHFQKAAKVSREKVPDLLPKVLFGLSWTLCKAGQTQKAFQFIEEGLDHITARSHKFYKELFLFLQAVYKETVDERKIHDLLSYFEKKNLHAYIEACARSAAAVFESSCHFEQAAAFYRKVLKAQEDILKGRVFICLLRKKVMMCLAVTLVFGSMSFPTLTNSGGFKESTDRNTTYIDHSPYKLSDQKKALS”, the protein production entry is recorded as “failed”.

On to “MYKDEMIQLHQFLVYVLKYLENGYDIKDECEEYFSLNISPHHIHRTKAEHKYAIFVLSSAISEILARKEGNNLPPNVVNGLSELARRSRKEVVKMEARLEAK”, for which the protein production entry is on record as “failed”.

For the sequence “MPYFYVFLLLLTSLLWGGNFVVGKSLVDHASPMTLTNLRWMIAIVCLLPMVWFKEKKILPPRTAILPLILMGISGVALFNIFQFLALEKTSATNVGLISTLNAISIALFSVLFLKEKVNTLQILSMILSFFGVILVLLKGDFSLLFSLHFNSGDLWMIAAVCIWGIYSVCSKWATKTTTPLMATLYSGIFGVILLLPFNIGSFTVSNINTSFITSLLYTGLISTVLCMVFWNIGVQKLGATTSGIFLNFNPIFTAILAFIFLGEELTWIQILGTIVVVTGCYLFSHFKTVAVQPVRPLMRKHS”, the protein production entry is on record as “failed”.

For “MRTLNTSAMDGTGLVVERDFSVRILTACFLSLLILSTLLGNTLVCAAVIRFRHLRSKVTNFFVISLAVSDLLVAVLVMPWKAVAEIAGFWPFGSFCNIWVAFDIMCSTASILNLCVISVDRYWAISSPFRYERKMTPKAAFILISVAWTLSVLISFIPVQLSWHKAKPTSPSDGNATSLAETIDNCDSSLSRTYAISSSVISFYIPVAIMIVTYTRIYRIAQKQIRRIAALERAAVHAKNCQTTTGNGKPVECSQPESSFKMSFKRETKVLKTLSVIMGVFVCCWLPFFILNCILPFCGSGETQPFCIDSNTFDVFVWFGWANSSLNPIIYAFNADFRKAFSTLLGCYRLCPATNNAIETVSINNNGAAMFSSHHEPRGSISKECNLVYLIPHAVGSSEDLKKEEAAGIARPLEKLSPALSVILDYDTDVSLEKIQPITQNGQHPT”, the protein production result was “failed”.

Take “MSSQLNHGTLPKISIVTPSYNQAQYLEATMRSILDQGYPDLEYIVMDGGSTDGSTEIIQKYSDRLTYWESAPDKGQADAIFRGFERATGEIFCYVNSDDLLLPGSLEMVGRWFREHPDEEWVVGGTILIDGLGIPIIRSRRGLPEADLGVKVTFKRLLLHNCGGFHQPASFWRRSAFEQAGGFDRTLRFCFDYDLFFRLAKRRPSGRIRSFLAAFRYHPASKTSTLESVFREENETLWRRYGRYLYSENQIRNFAHKQTTRDMWNNRIIKLGFYLKILNVSNAIGSLEHHHHHH”: the protein production entry is on record as “not failed”.

As to “MKIIVKTLKGIRFEIEVKPNDSVAEVKKNIETVMGASEYPAAQQILIHKREKLRDETTMEANKVFDKSVIAIIITKGCLEEMEKQNPPLFQMIRHNSAGFVPVLNKESFERDNELAQPEEDLLQLQVTAVDDEAINRVLFYS”, the protein production entry was “failed”.

Turning to “MEFQLWGAKIVIEPKPDLRYLYLEITNRCNLKCEMCFKQYWEDKEGDMDWDLFLKILDDAKEFPELKMIYFGGIGEPSVHPRFMDMVREVKRRGFRLGMSTNGVLLEDKILEEFVKLGVDVVYFSMDAIPTPSNIVTLGHITSKVVESRIKKLVELKKRYKTEKPTIGVEVVATKENYKQLPEMAIYLRNLGVDSMLISNLIPMTKEHSKAIVYDGSVDMTPIVNELHQIAEGGPFMRIAEFKLRTNRYCDFIENNVTVVRWDGEVFPCYRFLHTYPEVIFGREKKVIAHSFGNVKEKSLKDIWMSEEYVRFRFLVKASAYPSCIDCPLNTSCSFALDTTQDCWGTSPSCGDCLWSRGIVLCPIPFEYMGKFL”, the protein production entry is “failed”.

Take “MPALSGPQYLGEGLKLIMRPGLRLFVLIPLTLNLLVFALLIGFAMQQFSHWVDLLMPSLPDWLSFLQYIVWPLFVLLVLVIVFFTFTMVANIISAPFNGFLSEKVEVVVRGRDDFPPFSWAELLAMIPRTMGREMRKLAYFLPRALVLLVLSFVPGVNLIATPLWILFGIWMMAVQYIDYPADNHKLGWNEMLAWLRSKRWACMGFGGVTYLALLIPLVNLVMMPAAVAGATLFWVREEGERALVK”: the protein production result is reported as “failed”.

Turning to “GSAYTPLSEDESHRIFELVKEIDTSNQDASKSEKILQQRLDLLHQVRLRYFTPREVARLMSFPENFEFPPETTNRQKYRLLGNSINVKVVGELIKLLTIK”, the protein production entry is recorded as “failed”.

Regarding “MTATEPTEKILPSPDYVQSLARGLAVIRCFDHRNQRRTLSDVARATDLTRATARRFLLTLVELGYVATDGSAFWLTPRVLELGYSYLSSLSLPEVAQPHLEKLSHKVHESSSVSILDGADIVYVARVPVSRIMTVGITIGTRLPAYATSMGRVLLAGLPDDELDAYLEKLDIQRLTERTITARDELKAAILAVRADGICVLDQELEAGLRSMAAPIRGASGLTVAAVNISTPAARYSLEDLHSDLIPSLRVTATDIEQDLATVNR”, the protein production entry was “not failed”.

Regarding “MRARPYPTSTYFVSTADGRLPAMSQPIAAPFRQQLLDLVARIPPGRVMTYGQLALLAGQPGAARQAGAVMHSLKDSDLPWQRVINAQGRVSTYKVGLGEVQEGLLRAEGIEFDDAGRCDLSRYQWWPDENAANIAQRLL”, the protein production entry is listed as “failed”.

Take “MTVLKGDNLEILKTIESSSIDLIYMDPPFFTQKTQKLSNNKNIMYSFEDTWTSIEDYKEFLSVRLEECKRVLKNSGSIFVHCDKIANHHIRLILDNIFGVDMFQSEIIWNYKRWSNSKKGLLNNHQNIYFYSKSKDFKFNTIFTEYSSTTNIDQILVERKRDGNSKTIYKVDNNGNYILAKEKNGVPLSDVWNIPFLNPKAKERVGYPTQKPILLLEQIIKIATDKNDIVLDPFCGSGTTLVASKILNRNYMGIDLSEEAINITQQRLENVIKTSSNLLNKGIE”: the protein production entry is “failed”.
